Experimental data: patent publication US20200087416A1

Legend:
[1] = target: cynomolgus PCSK-9 (cynomolgus); experiment: BLI (ForteBio), IgG on AHQ sensor, 100 nM antigen
[2] = target: human PCSK9 (PCSK9 antigen, SEQ ID NO. 53) (human); experiment: MSD-SET, Fab with biotin-PCSK9 in solution, IgG on plate, pH 6.0
[3] = target: cynomolgus PCSK-9 (cynomolgus); experiment: MSD-SET, Fab with biotin-PCSK9 in solution, IgG on plate, pH 7.4
[4] = target: human PCSK9 (PCSK9 antigen, SEQ ID NO. 53) (human); experiment: as above
murine PCSK-9 (murine) = murine PCSK-9 (murine) (UniProt Q80W65); experiment: as above
[5] = target: human PCSK9 (PCSK9 antigen, SEQ ID NO. 53) (human); experiment: flow cytometry, PCSK9 left on CHO-LDLR cells (anti-His-FITC) after premix with 1 nM control IgG
[6] = target: human PCSK9 (PCSK9 antigen, SEQ ID NO. 53) (human); experiment: flow cytometry, PCSK9 left on CHO-LDLR cells (anti-His-FITC) after premix with 10 nM control IgG
[7] = target: human PCSK9 (PCSK9 antigen, SEQ ID NO. 53) (human); experiment: flow cytometry, PCSK9 left on CHO-LDLR cells (anti-His-FITC) after premix with 1000 nM control IgG
[8] = target: human PCSK9 (PCSK9 antigen, SEQ ID NO. 53) (human); experiment: cell-based or functional assay
[9] = target: human PCSK9 (PCSK9 antigen, SEQ ID NO. 53) (human); experiment: flow cytometry, PCSK9 left on CHO-LDLR cells (anti-His-FITC) after premix with 0.1 nM control IgG
[10] = target: human PCSK9 (PCSK9 antigen, SEQ ID NO. 53) (human); experiment: flow cytometry, PCSK9 left on CHO-LDLR cells (anti-His-FITC) after premix with 100 nM control IgG

Alirocumab (antibody)
Kd [1]: 0.383 nM

Alirocumab Fab
Kd [2]: 0.051 nM | Kd [3]: 0.082 nM | Kd [4]: 0.072 nM | Kd (murine PCSK-9 (murine)): 0.3 nM

Bococizumab (antibody)
Kd [1]: 0.476 nM

Evolocumab (antibody)
Kd [1]: 1.3 nM

Evolocumab Fab
Kd [3]: 0.0082 nM | Kd [4]: 0.016 nM

IgG (negative control) (antibody)
Fluorescence Signal Value [5]: 6730 | Fluorescence Signal Value [6]: 6960 | Fluorescence Signal Value [7]: 8920 | BODIPY-LDL uptake by HepG2 cells, fluorescence, 4.2 nM, replicate 1 [8]: 0.358 | BODIPY-LDL uptake by HepG2 cells, fluorescence, 4.2 nM, replicate 2 [8]: 0.325 | BODIPY-LDL uptake by HepG2 cells, fluorescence, 16.8 nM, replicate 1 [8]: 0.297 | BODIPY-LDL uptake by HepG2 cells, fluorescence, 16.8 nM, replicate 2 [8]: 0.309 | BODIPY-LDL uptake by HepG2 cells, fluorescence, 66.7 nM, replicate 1 [8]: 0.329 | BODIPY-LDL uptake by HepG2 cells, fluorescence, 66.7 nM, replicate 2 [8]: 0.288 | Fluorescence Signal Value [9]: 7000 | Fluorescence Signal Value [10]: 7520
